According to the supplement of paper PMC11865577:

Experiments:
Assay in all cases: pull-down binding Z-score (relative to library population); higher = stronger binding
[1] = system: G-clamp-N3 (biotin conjugate); details: RNA library: Library-1 (pre-miRNA loops + repeats)
Summary of the method: (§1)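 The RNA library, end-labelled with Cy5 or Cy3, was heat-folded in phosphate/NaCl/KCl buffer, and 1 μg was incubated at 25 °C for 60 min with streptavidin beads carrying 100 pmol of biotin-conjugated small molecule. Hot SDS released the bound RNA, which was then hybridised to a DNA barcode microarray for 20 h at 55.5 °C. For scoring binding, signal from beads alone was subtracted, replicate barcoded probes were averaged after discarding the highest and lowest, and each value was turned into a Z-score from the library mean and standard deviation.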

[2] = system: TO-3-N3 (biotin conjugate); details: RNA library: Library-2
Summary of the method: as §1

[3] = system: TO-3-N3-2 (biotin conjugate); details: RNA library: Library-2
Summary of the method: as §1

TO-N3 (biotin conjugate) = details: RNA library: Library-2
Summary of the method: as §1

[4] = system: TO-N3-2 (biotin conjugate); details: RNA library: Library-2
Summary of the method: as §1

Sequence	pull-down binding Z-score [1]	pull-down binding Z-score [2]	pull-down binding Z-score [3]	pull-down binding Z-score (TO-N3 (biotin conjugate))	pull-down binding Z-score [4]
CUGGCAUUUACGAGUCAGAGUUCUUACAGAGCUGC [hsa-mir-6514]	-1.37	0.163	0.16	0.639	1.48
CUGGCCAUCAGUGUGGGCUAAC [hsa-mir-6732]	-0.237	-0.0637	-0.117	0.33	0.569
CUGGCUGGUCCAGCCCCUCAGAAG [hsa-mir-6796]	-0.944	1.16	0.4	1.39	1.47
CUGGCUUCUCUGGUUCUCCAGCUUACAG [hsa-mir-1269b]	-1.06	-0.401	-0.356	-0.0501	0.333
CUGGGAAGAGACCAUGAACAGGUUAGUCCAG [hsa-mir-4327]	-0.176	0.385	-0.286	0.536	-0.495
CUGGGAAGGGAGCUGUCCGGCUCCCCAG [hsa-mir-3155b]	2.41	-0.412	-0.263	-0.53	-0.136
CUGGGAGGUGUGAUAUCGUGGUUCCUGG [hsa-mir-3689c]	0.718	1.02	0.136	1.13	0.744
CUGGGAGGUGUGAUCCCGUGCUUCCUGG [hsa-mir-3689b]	-0.593	-0.788	-0.408	-0.713	0.409
CUGGGAGGUGUGAUCCUGUGCUUCCUGG [hsa-mir-3689a]	-0.339	0.678	0.507	0.863	1.15
CUGGGGACUGUGUGGACUGGUAUCACCCAG [hsa-mir-2278]	0.134	-0.242	-0.298	0.225	0.585
CUGGGGAGCCGGACAGCUCCCUUCCCAG [hsa-mir-3155a]	0.802	0.918	-0.168	0.7	-0.0145
CUGGGGGAAGGCUCCAGACCCCAGCCU [hsa-mir-4267]	-0.401	0.793	0.331	1.19	1.37
CUGGGGUUGGAAUGUGACCCCA [hsa-mir-4654]	-0.709	0.425	-0.171	0.541	0.687
CUGGGUCCUCUGUGCAGGGUCUUACCCAG [hsa-mir-7850]	-0.833	-0.3	-0.415	-0.253	0.337
CUGGGUGGGACACUCAG [hsa-mir-4692]	-0.443	1.24	0.311	0.91	0.0278
CUGGGUUCGGCUGCUACCCCAAA [hsa-mir-6768]	-1.38	0.179	0.195	0.563	0.742
CUGGGUUCUUAGAGGCCUAAUCCUCUACAAACUCAGUUU [hsa-mir-4305]	-1.01	-0.124	-0.258	0.144	0.546
CUGGUAGUAUAAAACCCAG [hsa-mir-934]	0.805	-0.0745	-0.114	-0.151	-0.468
CUGGUGUUCUCACGCAAAGUGGCCAGGGUGUGGGAGACUAGA [hsa-mir-7161]	2.32	0.688	0.556	1.14	1.34
